We go through 167 variants from the RNAGym collection of RNA variant scans (doi:10.7554/elife.90254).

First the molecules themselves.
B1: OR4K15 (parent)
chain: GUUAACGGUCAUAGGCCAUGGAAACUAGGAGCACCAUUUCGCUGCCAGUGAAGAAAUGAACAAAGAAAAUCUGGGCCAGGCAGGCAUCAAAAGAAAUAGUCUUGCGCUCAACCAGAAAGUCUGUAAUCAUUUUAAGGGUA

The variants in this series derive from B1. Kind of series: self-cleavage, relative activity (ratio to wild type); higher = more cleavage; in vitro, sequencing; the parent is a self-cleaving ribozyme.
For A18G A33G, the self-cleavage came out at 0.97.
The value for A18U U133A was 1.57; that for U19A A78G was 0.31.
For the variant U19A A89U, the self-cleavage worked out at 0.85.
The value for A18G A125G was 0.94.
On to A18U A111G, for which the self-cleavage came out at 0.03.
In the case of A18U A111U, the self-cleavage was 0.12.
To U19A A91G belongs 1.06; to U19A A91C, 1.85.
To A18U A30U belongs 1.57; to A18U A52U, 1.6.
As to A18U G58A, the self-cleavage is 1.09.
Regarding U19A, the self-cleavage is 1.16.
The value for A18G U97C was 1.42; that for U19A A90G was 0.53.
Take A18G A69U: the self-cleavage amounted to 1.94.
Turning to A18U A117U, the self-cleavage came to 0.76.
With A18U C113A, the self-cleavage is 0.05.
To A18U U102C belongs 0.98.
To A18G C85U belongs 0.98; to A18G U57A, 1; to A18C C113U, 0.12.
On to A18G G65U, for which the self-cleavage is 1.18.
Consider A18G A23G, for which the self-cleavage was 1.01.
To A18G U70C belongs 0.57.
With A18U A24U, the self-cleavage came out at 1.36.
For A18G G115U, the self-cleavage was found to be 0.14.
To A18U A126G belongs 1.86; to A18G A54G, 0.96; to A18G A54U, 1.25.
As for A18G G53U, the self-cleavage was 1.66.
The value for A18G U38A was 1.27.
The value for A18G U38C was 0.46; that for A18G A47G was 1.14.
As for A18U, the self-cleavage was found to be 1.11.
To A18G belongs 1.16; to A18U A47U, 0.78; to A18G U132G, 1.71.
The value for A18U U108C was 0.01.
In the case of A18C G28U, the self-cleavage turned out to be 1.37.
For the variant A18C U131C, the self-cleavage is 0.73.
Turning to A18C U19C, the self-cleavage turned out to be 1.5.
With A18U G104A, the self-cleavage turned out to be 0.05.
Regarding A18G C101A, the self-cleavage was 0.06.
Consider A18U C128U, for which the self-cleavage came out at 1.55.
Regarding A18G A111G, the self-cleavage was determined as 0.03.
With U19A A36G, the self-cleavage is 1.19.
As to A18G A60G, the self-cleavage was found to be 0.97.
For A18G C109A, the self-cleavage came out at 0.34.
The value for A18G C109U was 0.82.
The value for A18G C40U was 1.66.
To A18U A27G belongs 1.13; to U19A A82U, 0.34.
Regarding A18G A110G, the self-cleavage amounted to 0.21.
As to A18U A23U, the self-cleavage amounted to 1.88.
To A18U A23G belongs 1.26; to A18U A91G, 1.16.
As to A18U A91U, the self-cleavage was 1.96.
To A18C U87C belongs 0.67; to A18G U139A, 1.83.
As to A18G U120A, the self-cleavage was determined as 2.34.
To A18G U120C belongs 1.16; to A18G U130G, 1.61; to A18G U130A, 1.84.
The value for A18G U130C was 1.01; that for A18G A62G was 1.54.
The value for A18G A62U was 2.16; that for A18U A60G was 0.68.
Turning to A18G C46U, the self-cleavage came to 1.34.
Consider A18U A90G, for which the self-cleavage was 0.53.
For A18U U100C, the self-cleavage came out at 2.18.
The value for A18U A67G was 1.53; that for A18G U108A was 0.03.
The value for A18G U108C was 0.02; that for A18G A89U was 1.48.
With A18U U37G, the self-cleavage was determined as 1.12.
To A18G U100C belongs 2.34.
The value for A18G A36U was 1.39.
The value for A18C A117G was 1.24.
For the variant A18G A117U, the self-cleavage is 1.01.
The value for A18G A126G was 0.8; that for A18U C105U was 0.28.
To U19A A94G belongs 1.89.
For A18U A98C, the self-cleavage is 1.13.
A18G G75C: the self-cleavage stood at 0.16.
To A18G A114C belongs 0.05; to U19A A23G, 1.28; to A18G A67G, 1.03.
In the case of A18G A67U, the self-cleavage was 1.79.
A18G A82G: the self-cleavage came out at 0.98.
To A18G U49C belongs 1.43; to A18U U127A, 2.41.
The value for A18G A134G was 1.8.
For the variant A18U U120C, the self-cleavage worked out at 1.1.
For A18G C61U, the self-cleavage came to 1.18.
For the variant A18G G73U, the self-cleavage was found to be 0.23.
For A18U U39G, the self-cleavage amounted to 0.98.
Turning to A18U U39A, the self-cleavage worked out at 1.05.
The value for A18U U39C was 1.81; that for A18G G83A was 1.54.
A18C A118G: the self-cleavage was 1.22.
To U19A A69G belongs 1.14.
Take A18G A68U: the self-cleavage is 1.33.
Turning to A18G A78U, the self-cleavage came to 0.35.
As to U19A A56G, the self-cleavage stood at 1.6.
In the case of A18C A82G, the self-cleavage turned out to be 0.44.
As to U19A A52G, the self-cleavage worked out at 1.35.
To A18G C32U belongs 1.17; to U19A A62G, 1.32.
A18U U38A: the self-cleavage came out at 1.02.
To A18U A92U belongs 1.25.
The value for U19A A96U was 1.41; that for A18G U19G was 0.71; that for A18U A94U was 1.11.
The value for A18G U87A was 1.14; that for A18G U87C was 1.27.
A18U A55U: the self-cleavage came to 1.49.
To A18U A55G belongs 1.85; to U19A A22G, 1.09; to A18U G48U, 1.24.
To A18G G80U belongs 0.14.
The value for A18U A86G was 1.01; that for A18G U122A was 0.94.
As for U19A A98G, the self-cleavage stood at 0.5.
For the variant U19A A86G, the self-cleavage was 2.13.
To A18G A86G belongs 1.99; to A18G U103C, 1.04.
To U19A A33G belongs 0.62.
To A18G A94G belongs 1.
Turning to A18U A114C, the self-cleavage was found to be 0.03.
Regarding A18U A114U, the self-cleavage turned out to be 0.08.
The value for U19A A59G was 1.12; that for A18G A51G was 1.86.
As to A18G A51U, the self-cleavage was determined as 1.15.
Turning to U19A A55G, the self-cleavage worked out at 1.79.
On to U19A A54U, for which the self-cleavage was 1.8.
In the case of U19A A54G, the self-cleavage is 1.15.
On to A18U A96U, for which the self-cleavage is 1.88.
Consider A18U A96G, for which the self-cleavage was 1.62.
As for A18G U124A, the self-cleavage stood at 0.9.
To A18G U124G belongs 0.94.
For A18U A66C, the self-cleavage stood at 1.22.
In the case of A18U A66G, the self-cleavage amounted to 1.5.
To A18U U72C belongs 0.1.
The value for A18U A116G was 0.63; that for A18U A116U was 0.15.
As for A18C C71U, the self-cleavage amounted to 0.35.
On to A18G A22U, for which the self-cleavage worked out at 1.95.
Take A18G A22G: the self-cleavage worked out at 1.01.
A18U U49C: the self-cleavage is 1.47.
For A18U U49A, the self-cleavage came to 1.67.
To A18U A56G belongs 1.48; to U19A A63G, 1.59.
With A18G A118G, the self-cleavage was found to be 1.34.
To A18G A118C belongs 0.27; to A18G A116G, 1.17; to A18G A116U, 0.75.
The value for A18U U70A was 1.35; that for A18G C42G was 1.02.
The value for A18G A52G was 1.67.
As to A18G A52U, the self-cleavage was found to be 1.21.
The value for A18G G93U was 2.69; that for A18G A96C was 1.68; that for A18G A96U was 1.84.
To A18G A96G belongs 1.44.
Consider A18G A91G, for which the self-cleavage was 1.41.
As to A18G A24C, the self-cleavage was 0.96.
